The values that follow come from patent publication US20210369776A1 (published 2021).

Assay [1] addresses T1, EBV LMP2 (latent membrane protein 2) peptide on HLA-A*02:01 (human).
T1 peptide: LLWTLVVLL
Nature of the assay: killing.

In assay [2] the target is T1, EBV LMP2 (latent membrane protein 2) …. Description: cytokine release.

B1: L201 TCR (TCR, V domains shown)
Valpha: DQQVKQNSPSLSVQEGRISILNCDYTNSMFDYFLWYKKYPAEGPTFLISISSIKDKNEDGRFTVFLNKSAKHLSLHIVPSQPGDSAVYFCAAPPPSGNQFYFGTGTSLTVIP
Vbeta: DVKVTQSSRYLVKRTGEKVFLECVQDMDHENMFWYRQDPGLGLRLIYFSYDVKMKEKGDIPEGYSVSREKKERFSLILESASTNQTSMYLCASSTRLAGAQRDTQYFGPGTRLTVL
Consider B1, for which the binding result in assay [1] is given as “recognises”.

B2: L202 TCR (TCR, V domains shown)
Valpha: EDVEQSLFLSVREGDSSVINCTYTDSSSTYLYWYKQEPGAGLQLLTYIFSNMDMKQDQRLTVLLNKKDKHLSLRIADTQTGDSAIYFCAESIPSGYNKLIFGAGTRLAVHP
Vbeta: GVAQSPRYKIIEKRQSVAFWCNPISGHATLYWYQQILGQGPKLLIQFQNNGVVDDSQLPKDRFSAERLKGVDSTLKIQPAKLEDSAVYLCASSLGLAGEDTQYFGPGTRLTVL
On to B2, for which, in assay [1], the binding result is listed as “recognises”.

B3: L203 TCR (TCR, V domains shown)
Valpha: DQQVKQNSPSLSVQEGRISILNCDYTNSMFDYFLWYKKYPAEGPTFLISISSIKDKNEDGRFTVFLNKSAKHLSLHIVPSQPGDSAVYFCAAKLPQAAGNKLTFGGGTRVLVKP
Vbeta: MVIQNPRYQVTQFGKPVTLSCSQTLNHNVMYWYQQKSSQAPKLLFHYYDKDFNNEADTPDNFQSRRPNTSFCFLDIRSPGLGDAAMYLCATSSSIAGDTRNNEQFFGPGTRLTVL
As to B3, in assay [2], the binding result is on record as “recognises”.
